Tests used:
[1] = molecular target: T1, HIS-TRB3 (Arabidopsis thaliana, UniProt Q9M2X3 1-295); experiment: MST; MST: 50 mM NaPO4, 300 mM NaCl, pH 7.5, 0.05% Tween 20, 1.25 mg/ml BSA; 20 nM Cy3-dsDNA, 260 pM-8.5 uM protein; 10 min at RT; details: protein: recombinant; tags: 6xHis (pET-28b); label: 5'-Cy3 on both strands; blunt
T1 sequence: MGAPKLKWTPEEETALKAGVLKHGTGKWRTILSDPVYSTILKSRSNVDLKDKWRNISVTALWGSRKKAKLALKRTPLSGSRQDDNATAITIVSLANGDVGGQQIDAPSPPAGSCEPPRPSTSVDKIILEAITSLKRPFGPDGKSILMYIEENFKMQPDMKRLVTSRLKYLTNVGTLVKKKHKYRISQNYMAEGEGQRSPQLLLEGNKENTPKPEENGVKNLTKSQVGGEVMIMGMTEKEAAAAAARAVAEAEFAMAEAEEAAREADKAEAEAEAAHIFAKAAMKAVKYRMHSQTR

[2] = molecular target: T2, HIS-TRB1 (Arabidopsis thaliana, UniProt Q8VWK4 1-300); experiment: as above; details: protein: recombinant; tags: 6xHis (pET-28b); label: 5'-Cy3 on both strands; blunt
T2 sequence: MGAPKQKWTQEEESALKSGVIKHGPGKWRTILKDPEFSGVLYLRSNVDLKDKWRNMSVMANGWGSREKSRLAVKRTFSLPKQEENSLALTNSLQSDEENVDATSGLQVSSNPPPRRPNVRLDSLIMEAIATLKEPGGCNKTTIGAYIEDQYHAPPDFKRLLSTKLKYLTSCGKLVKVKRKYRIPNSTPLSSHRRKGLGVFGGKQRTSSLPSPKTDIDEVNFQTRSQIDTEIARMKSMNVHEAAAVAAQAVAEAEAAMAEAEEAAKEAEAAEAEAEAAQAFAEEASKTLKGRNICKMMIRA

Binder	Kd [1] [nM]	Kd [2] [nM]	binding result [2]
R4 telo-box (4x repeat) (dsDNA) DNA 1: GGTTTAGGGTTTAGGGTTTAGGGTTTAG DNA 2: CTAAACCCTAAACCCTAAACCCTAAACC	531 ± 30	567 ± 180	–
proSEP3-telo-box (dsDNA) DNA 1: TTTAAATGTTAGGGTTTTTTGTAGGATT DNA 2: AATCCTACAAAAAACCCTAACATTTAAA	640 ± 19	–	no binding
(C)AACCTAA (dsDNA) DNA 1: CATCATGGCAACCTAAGGCTGGTACTAG DNA 2: CTAGTACCAGCCTTAGGTTGCCATGATG	298 ± 48	4900 ± 1000	–
(C)GACCTAA (dsDNA) DNA 1: CATCATGGCGACCTAAGGCTGGTACTAG DNA 2: CTAGTACCAGCCTTAGGTCGCCATGATG	652 ± 64	–	no binding

— publication PMC13132431, “Epigenetic gene regulation is controlled by distinct regulatory complexes utilizing specialized paralogs of TELOMERE REPEAT BINDING FACTORS”
